Paper PMC4026020

T1: MBP-AtTZF1 RR (Arabidopsis thaliana, UniProt O82307 86-128)
T1 chain: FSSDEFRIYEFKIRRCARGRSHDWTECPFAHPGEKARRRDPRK

T2: MBP-AtTZF1 TZF (Arabidopsis thaliana, UniProt O82307 129-195)
T2 sequence: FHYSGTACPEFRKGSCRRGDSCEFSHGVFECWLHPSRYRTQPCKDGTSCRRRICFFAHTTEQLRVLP

T3: GST-AtTZF1 full-length (Arabidopsis thaliana, UniProt O82307 1-315)
T3 sequence: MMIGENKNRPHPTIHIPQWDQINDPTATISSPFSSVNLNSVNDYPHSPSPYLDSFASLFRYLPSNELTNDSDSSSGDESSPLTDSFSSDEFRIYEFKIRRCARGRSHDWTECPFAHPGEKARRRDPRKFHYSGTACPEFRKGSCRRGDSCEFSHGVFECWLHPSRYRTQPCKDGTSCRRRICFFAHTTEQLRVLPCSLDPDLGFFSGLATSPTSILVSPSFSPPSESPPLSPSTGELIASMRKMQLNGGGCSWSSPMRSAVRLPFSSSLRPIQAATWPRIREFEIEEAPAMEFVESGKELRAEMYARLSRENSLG

T4: MBP-AtTZF1 RR-TZF (Arabidopsis thaliana, UniProt O82307 86-195)
T4 sequence: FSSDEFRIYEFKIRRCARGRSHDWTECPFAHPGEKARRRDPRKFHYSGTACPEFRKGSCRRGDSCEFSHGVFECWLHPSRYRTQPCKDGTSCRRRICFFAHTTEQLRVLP


Key:
MBP-AtTZF1 RR = molecular target: T1, MBP-AtTZF1 RR; experiment: EMSA
MBP-AtTZF1 TZF [1] = molecular target: T2, MBP-AtTZF1 TZF; experiment: EMSA
GST-AtTZF1 full-length = molecular target: T3, GST-AtTZF1 full-length; experiment: fluorescence anisotropy
MBP-AtTZF1 RR-TZF [2] = molecular target: T4, MBP-AtTZF1 RR-TZF; experiment: fluorescence anisotropy
MBP-AtTZF1 TZF [3] = molecular target: T2, MBP-AtTZF1 TZF; experiment: fluorescence anisotropy
MBP-AtTZF1 RR-TZF [4] = molecular target: T4, MBP-AtTZF1 RR-TZF; experiment: EMSA

| Binder | Kd (GST-AtTZF1 full-length) | Kd (MBP-AtTZF1 RR-TZF [2]) | other results |
| --- | --- | --- | --- |
| UAUUUAUUAUUUAUUUAUU (ssRNA) [ARE19] |  |  | binding result (MBP-AtTZF1 RR): no binding; binding result (MBP-AtTZF1 TZF [1]): no binding |
| UAUUUAUUAUUUAUUUAUU (ssRNA) [Fl-ARE19] | 4550 ± 130 nM | 410 ± 50 nM |  |
| UUUUUUUUUUUUUUUUUUU (ssRNA) [Fl-polyU] | 2270 ± 190 nM | 470 ± 30 nM | Kd (MBP-AtTZF1 TZF [3]): 7370 ± 120 nM |
| UGUUUGUUGUUUGUUUGUU (ssRNA) [MutG] |  |  | binding result (MBP-AtTZF1 RR-TZF [4]): no binding |
